In patent US6824994B2, “Peptide ligands that mimic sensor kinases and inhibit response regulators” (priority 2000, dated 2004):
“Also recorded” adds a separate entry of the source.

Tests used:
[1] = target: T1, VanR˜P-PVanH complex (Enterococcus faecium, UniProt Q06239); test: Gel shift analysis of VanR˜P binding to PVanH DNA; format: biochemical
T1 construct: GST (N, cleaved yes); made in house; host or cells: E. coli BL21 lambda DE3 (pGEX-2TK); phosphorylated with lithium acetyl phosphate
Protocol: (§1) Amplification and 5′-End-Labeling of PVanH DNA. A 254 bp DNA fragment containing the PVanH promoter region (residues −191 to 63) was obtained by PCR as described by T. Holman et al., 33 Biochem. 4625-4631 (1994) using a boiled cell preparation of En. faecium A634 as the template source. Amplified PVanH promoter DNA was 5′-end-labeled with [γ-32 P]ATP (specific activity of […]) and phage T4 polynucleotide kinase. The reaction mixture was incubated for 30 minutes at 37° C., and unincorporated ATP was removed by centrifugal gel filtration (Sephadex G-50 spin column, Amersham Pharmacia Biotech).
Phosphorylation of VanR with Acetyl Phosphate. VanR was phosphorylated as described previously in T. Holman et al., 33 Biochem. 4625-4631 (1994). The reaction was performed in a total volume of 100 μL which contained 50 mM HEPES (pH 7.2), 5 mM MgCl2, 50 mM lithium acetyl phosphate, and 9 μM VanR. […]
Gel Shift Analysis of VanR ˜P Binding to PVanH DNA. VanR-PVanH complexes were quantified by gel shift analysis as described by T. Holman et al., 33 Biochem. 4625-4631 (1994). […]
(§2) To start the reaction, ^32P-labeled PVanH promoter probe DNA (0.65 ng in 1 μL) was added, and the reaction mixture was incubated on ice for 15 minutes. The resultant VanR˜P-PVanH complexes were analyzed by nondenaturing PAGE. […]

[2] = target: T2, phosphoryl transfer from P˜VanS to PhoB (Escherichia coli, UniProt P0AFJ5); test: Phosphotransferase assay, phosphoryl transfer from P˜VanS to PhoB; format: biochemical; settings: peptide at 1 mM
T2 construct: GST (N, cleaved yes); made in house; host or cells: E. coli BL21 lambda DE3 (pGEX-2TK)
Protocol: Phosphotransferase Assay. VanSc-GST (4 pmol) was labeled for 60 minutes at room temperature in a 5 μL volume containing, 50 mM Tris-HCl (pH 7.4), 5 mM MgCl2, and 100 mM KCl. The reaction was initiated by addition of 1 μL of 200 μM [γ-^32P]ATP which contained 1 μCi. After 60 minutes, the 5 μL reaction mixture was added to a 15 μL reaction mixture containing 80 pmol of PhoB and 2.5 mM PMSF all in the same buffer, with the appropriate peptide at a final concentration of 1 mM. Reactions were stopped by the addition of 10 μL of SDS gel loading buffer, and the resultant mixture was fractionated by SDS-PAGE. Phosphoproteins were assessed autoradiographically with a phosphorimager, as previously described.

[3] = target: T3, VanR (Enterococcus faecium, UniProt Q06239); test: Phage ELISA of phage-displayed peptides binding to immobilised VanR; settings: cloned N-terminal regulatory domain of VanR
T3 construct: GST (N, cleaved yes); made in house; host or cells: E. coli BL21 lambda DE3 (pGEX-2TK)
Protocol: Phage Display. Phage display was performed using the methods described by A. Sparks et al., Phage Display Of Peptides And Proteins; A Laboratory Manual (1996). Microtiter plate wells were coated with purified VanR and used to select binding phage from a library displaying combinatorial peptides, i.e., 10 random NNK codons followed by a Cys codon, TGC, in the eleventh position (N is A, G, C, or T, and K is G or T). After three rounds of selection, the binding of individual phage clones to the VanR target protein was assessed by phage-ELISA using an anti-M13 phage monoclonal antibody-horseradish peroxidase conjugate (Pharmacia). Ninety-six phage plaques were picked from the third round of selection and tested for their ability to bind to VanR and to BSA, by phage ELISA, to determine levels of specific and background binding, respectively.
For inserting determinants for desired peptide sequences into phage M13 DNA, oligonucleotides encoding the defined peptide sequences were cloned into the XhoI and XbaI sites within gene III of bacteriophage M13. The resulting recombinant phage were then tested for binding to various protein targets, immobilized within microtiter plate wells, by phage ELISA. […]
Sequence Analysis of Combinatorial Peptides. […] The deduced peptide sequences were further analyzed by alignment with the amino acid sequence of VanS using the program MultAlin. […]

[4] = target: T4, VanR-PVanH complex (Enterococcus faecium, UniProt Q06239); test: Inhibition of the interaction between 32P-labeled PVanH promoter DNA and VanR; format: biochemical; settings: chemically synthesized peptide in disulfide form; 32P-labeled PVanH DNA segment
T4 construct: GST (N, cleaved yes); made in house; host or cells: E. coli BL21 lambda DE3 (pGEX-2TK)
Protocol: as §1
Gel Shift Analysis of VanR ˜P Binding to PVanH DNA. VanR-PVanH complexes were quantified by gel shift analysis as described by T. Holman et al., 33 Biochem. 4625-4631 (1994). Complexes were formed in a total volume of 15 μL which contained 4 pmol of VanR-P, which was preincubated with the appropriate effector peptides (as aqueous solutions) for 10 minutes at room temperature in 20 mM HEPES (pH 7.2), 5 mM MgCl2, 0.1 mM Na2EDTA, 0.5 mM CaCl2, 10% glycerol, and 0.5 μg of salmon sperm DNA.
as §2, with “PAGE. See generally J. Sambrook et al., Molecular Cloning: A Laboratory Manual, 2nd Ed.” for “PAGE.”

T3 sequence (Q06239 whole entry, the tested form may be a part): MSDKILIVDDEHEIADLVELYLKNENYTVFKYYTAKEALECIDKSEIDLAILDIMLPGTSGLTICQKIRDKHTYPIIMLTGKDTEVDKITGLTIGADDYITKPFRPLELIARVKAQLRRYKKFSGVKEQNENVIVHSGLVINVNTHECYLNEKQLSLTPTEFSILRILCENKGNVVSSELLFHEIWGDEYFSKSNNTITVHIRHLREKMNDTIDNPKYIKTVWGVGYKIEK
T1 sequence (Q06239 whole entry, one chain of several): as the sequence (Q06239 whole entry, the tested form may be a part) above
T2 sequence (P0AFJ5 whole entry): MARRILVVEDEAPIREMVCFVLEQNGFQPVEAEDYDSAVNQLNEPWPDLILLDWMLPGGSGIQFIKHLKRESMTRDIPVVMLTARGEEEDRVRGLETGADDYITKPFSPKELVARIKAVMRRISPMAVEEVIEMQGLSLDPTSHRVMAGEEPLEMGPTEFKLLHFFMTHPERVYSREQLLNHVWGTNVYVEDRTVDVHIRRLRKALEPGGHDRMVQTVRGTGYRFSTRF
T4 sequence (Q06239 whole entry, one chain of several): as the sequence (Q06239 whole entry, the tested form may be a part) above

Row | Substance | inhibition of the binding of VanR˜P to DNA segment of cognate promoter PVanH [1] | inhibition of phosphoryl transfer from VanS˜P to PhoB [2] | binding to the regulatory domain of VanR [3] | inhibition of the interaction between VanR and PVanH [4]
1 | SEQ ID NO. 2: modified peptide derived from SEQ ID NO. 1, more closely resembling VanS; the two Cys replaced with Ala and Ser (SLAHDSIIGYLS) | found to inhibit the binding of VanR˜P | inhibited phosphoryl transfer |  | 
2 | SEQ ID NO. 1: dodecamer peptide selected from a combinatorial phage-display library for binding to VanR; contains two Cys residues (SLCHDSVIGWEC) | found to inhibit the binding of VanR˜P |  | localized to the N-terminal, regulatory domain of VanR; also recorded: bound reproducibly to the cloned regulatory domain of VanR preferentially | inhibited the interaction between VanR and PVanH
